Experimental data reported in the DeepSol protein solubility set.

Test: soluble on expression in E. coli; label from the status in PepcDB or PDB records

Row | Sequence | soluble on expression in E. coli
1 | MFVMIIQGQVLGGYPRSRYVRRALRRLEQGEISAVELMGVLNQASSAVIGAQVSQGFPYVVDGMLDWHDIFRPFAEAWRNVTPTGLLRYFDNNFFYRIPLFTGEPEPTDPVLAPRVLSYSQVAEPAKLKVVVPGPVTFTLMSRNESGISDEELAEAIANLLADEVEKAVKAGAGFVQVDEPILSEPKATRDHALLAAELAGVIASRSGSAETMLSVYFYPPKPEVYEALLEARVDYLMVDLVAAGSKGLEVITGKGAGEGLALGVIDARSIYSESLEKVEAPVRRIVESVKPEKIILTTSTWLDLIPYRYALRKTALLGRYTYALAEKLGAQIAVAGGEMAGDPLEHHHHHH | not soluble
2 | MFVRFASAQSVPPGDIQTQPGTKIVFNAPYDDKHTYHIKVINSSARRIGYGIKTTNIKRLGVDPPCGVLDPKEAVLLAVSCDAFAFGQEDTNNDRITVEWTNTPDGAAKQFRREWFQGDGMVRRKNLPIEYNP | soluble
3 | MGAAAAMLAAVLLLTPITVPAGYPGAVAPATAACPDAEVVFARGRFEPPGIGTVGNAFVSALRSKVNKNVGVYAVKYPADNQIDVGANDMSAHIQSMANSCPNTRLVPGGYSLGAAVTDVVLAVPTQMWGFTNPLPPGSDEHIAAVALFGNGSQWVGPITNFSPAYNDRTIELCHGDDPVCHPADPNTWEANWPQHLAGAYVSSGMVNQAADFVAGKLQ | not soluble
4 | MGAIQFQTAPKLPVTVLLAAKNEAVNLPRCLAALGPAERVIVLDSHSTDATAEIARQHGAEVAQFDYRGGYPKKRQWALDTIPFGTPWILLLDADEVVPEDLWKEIGNVTRQPDADAYLITKGFHFLGRKFKHGGFSHSAVLLFKTGMARFEKLFDDDLNGLDMEIHERVVVDGRIGKLKTPLVHEDFKGLEAYITRHNKYSTWEAKVRHHYLTTGRYGEQTIKPRLFGNSQERRRFLKALIIRLPFEPQIWFIYHYLLRLGFLEGRPGLIASQIRAAYIAQARAKIYELRLNTPSRLEHHHHHH | not soluble
5 | MGCGLRKLEDPDESSPGKIFSTLKRPQVETKTEFAYEYALLDFTLQASTNPDVIKINSVLDIVAKVEDYYLKGYVVGAIHPVIQPVGQRKHLPASHLYRAVLSRLKLSPKHSAAGGQRRARLVMEECPLTCEAQANDAAKELMDKINAAAKRGMKFVGLVSQCYLPSMHCNGASHDGVAESGLHVRQDSQDNCKGWNEGALGGHLSESGVEEEPQHESGQHQTERNSSPSYANPKRGEAPDGKLYMVFNAFEEDAASWAYQEGVLSMKVTRKGAVISALDANWLELTTFYYKQGFSLIDSFVCWETPKVAKLEAFQLSVSDKLPKGKQKYSFQSLSGIPASGLA | soluble
6 | MGDGVLELVVRGMTCASCVHKIESSLTKHRGILYCSVALATNKAHIKYDPEIIGPRDIIHTIESLGFEASLVKIE | soluble
7 | MGDIHFIGSAANFFRSSTSDDWVRFHTFAEETLKGSQSLIALQWLVKVEPPQAETFTARMQQRFPEFTLYTVPKTGEIKYGFGTDDQAKYVLSDIYPLNYDNRKLLGFYSERERFKRILADIVVNRRPNVSDKVRLLQDGIDKSIVKDGMLVYHPVFSSEDDRSLLGVMVGVVRLSTYFEKLVQISVMEQDLDMRVIDTGFDSEDSPVLYQSPMWRADDEPKIERKLVLPNRDWVLEFELHQPINHSEELEHHHHHH | not soluble
8 | MGDTKVETISRLAQWRIENFGPCSFKKSDPFKVGIWNWHLSIERNRYLSVRLFPELSRVSKEQPPVAKFVLRVSNVGPNRRFYISPVYEKLLRTTDDCVWHVDSSFHGRFTIDVEFLDLKICPVNGGEASPVWPTDATMQSISTQTTLKCLSRMLEESILTDVIIHTADGTLSAHKAILSASSTVFKSMFHHDLMEKESSTIHIDDMSRESCMALLSYLYGNITQEEFWKHRLALLGAANKYDITDLKAACEESLMEDINSSNVLERLQEAWLYQLEKLKKGCLMYLFDFGKIYDVREEISSFFRQADRELMLEMFQEVLSVWKPV | soluble
9 | MGEFIGNEEFQNFMKATGFIQEFTRRLLERSSKNIIKIPDNLSNVNQLTCLVKQFLREQQDLAVKVEKVQENQKNLSDFVKEKLTNCNCHVQLDVRNLLAKEMKLQDLRQDDGLDFSIKLPSTSSTDFTVSLNQVVDADAQQRFDLELLKMFGAGNIPHFQPPPDLYQHHHIPHTSQQVAQENLAMLANVPKLDDNNAYFDTFSPEKSGKRAKKRAAPSSAHEAQPNNGPYKCRDCEKTFRQKHGLNQHLLTHETNGAFECDGCGKRYSRQESVYRHQRSTPCTKYQNLTTVEHDDTGALF | not soluble
10 | MGELFLVGMGPGDLPGLTQRAREALEGAEVVIGYSTYVKLLEEMGLLAGKEVVRKGMTEELDRAEEALERALSGQRVALVSGGDPGIYGMAAPVLELMEERGLKRVDGGVGLPGRFAGEEGEVFLAVIPGVTAANAVASLLESPLAHDTCLISLSDLLTPWPLIERRLHAAGQGDFVVVLYNPQSKRRDWQLRKSAEILLEYRPKETPAALVKSAYRKRQEVALTTLEGLREAEAGMLTTVVIGNRQSRFYEGTFLTPRGYALKYDLDTKEALPGETPGLSLVSPEGASSGRRDA | soluble
11 | MGERIIPKNMKPMNGMLLEHLARYYFSTPYASGRVLDIACGTGYGSVMVAKTRKTEVDQVLGVDFDADVIHYAKQNYYHPKVSFLVGDAMDPYLRNQIGTFDTILSFETIEHVKDDRLFIERMRQLLKKDGTLVLSTPFGQGRGKPSDEPFHYHQLTEEEFRSLFDSFSEKEVFYQRGVTIEPKRTNVHYAFGVAVCKLEHHHHHH | not soluble
12 | MGESHAPSKPKLDGELCLRPSSSVFLGDQQLYFTQEYLRTNSLNLKYVVYFTACQFSGPIAVAYSPRPASWYIWIRTISGRILKRDMAFNEPVFMEWTRAHCLLVLNKAGRAHIFSSLGEKISEVIFDSQMSDVHECRTFATSRGDSGIAVMDVDGQVSVVNSVSEPVIWSMKPPYSEMPTAWTAFQPHSQLTHILLIFEAVFLMGCQGESLREQSHAASWVDSNTKYVKCVVDDARSRIAMMTESGKIQIVSIDLSTCFCTVEITDHDIAKCINFGWVGNSAVFVQMSPSLIVFVNVSARRKPGDEVQIYEKMTANAKISIEPDGIRLFESTQVEFVEAASREKIAVLNRNPNEDGAHLYKAAQEMSQGTGHNSFAASTVIQDLYKAIDDCISTACDTWQPEEQKLLLKAARFGMAYTNTTPDTTKLMRAIKEIRVLNELRMVRTGIPLTHRQFRAIGETCVINRLIDMGSYSVAIKVAQWLGGETSENVDRVLLEWVRRSISKVSKSNMKMDQPALEALDEKISAKLLQFPHVSIADAARRAIEAKLPELARLFIRRETDDANHVAVLLQLNDVSAALQKASASQRPQLIHQVVRHLMNSESRSSYELAISRIPLAQCLYQDLVRQEGETRGASSRQMLALLEQASDFERQTLFHFDVAETERNPDERLNALRRAKDAAKSMGDKAIEEILNDVSAFAPLQIQRGQADMSVRDTVIEMAHDTAKVAQLKQQARLTDKQVLLWTIEGLAKKGKMEQLFDLAQKRSPIGYAPFVKACVRYKRLDEIKKYFAKVNGYPDLVAAHLAMKNYVEAAKLAYDRRDRDVLHAVHMKSHEDPTQCPRVGQFLRSLDQN | not soluble
13 | MGESLDRCIDDINRAVDSMSTLYFKPPGIFHNAILQGASNKASIRKDITRLIKDCNHDEAYLLFKVNPEKQSVSRRDGKEGVFDYVIKRDTDMKRNRRLGRPGEKPIIHVPKEVYLNKDRLDLNNKRRRTATTSGGGLNGFIFDTDLIGSSVISNSSSGTFKALSAVFKDDPQIQRLLYALENGSVLMEEESNNQRRKTIFVEDFPTDLILKVMAEVTDLWPLTEFKQDYDQLYHNYEQLSSKLRFIKKEVLLQDDRLKTMSQYHPSSSHDVAKIIRKEKDEIRRLEMEIANLQE | not soluble
14 | MGFGDLKSPAGLQVLNDYLADKSYIEGYVPSQADVAVFEAVSSPPPADLCHALRWYNHIKSYEKEKASLPGVKKALGKYGPADVEDTTGSGATDSKDDDDIDLFGSDDEEESEEAKRLREERLAQYESKKAKKPALVAKSSILLDVKPWDDETDMAKLEECVRSIQADGLVWGSSKLVPVGYGIKKLQIQCVVEDDKVGTDMLEEQITAFEDYVQSMDVAAFNKI | soluble
15 | MGFHPRVPEGEVARRIAAVGAAIDRVIGERKRKISGQMIGRAVIRERRRCVWLERSEVPLDVIREGEAFVVRFANPDGSLGQPHQLLSSWMPGDPVLEHHHHHH | not soluble
16 | MGFSDLRDKVVIVTGASMGIGRAIAERFVDEGSKVIDLSIHDPGEAKYDHIECDVTNPDQVKASIDHIFKEYGSISVLVNNAGIESYGKIESMSMGEWRRIIDVNLFGYYYASKFAIPYMIRSRDPSIVNISSVQASIITKNASAYVTSKHAVIGLTKSIALDYAPLLRCNAVCPATIDTPLVRKAAELEVGSDPMRIEKKISEWGHEHPMQRIGKPQEVASAVAFLASREASFITGTCLYVDGGLSIRAPISTPELEHHHHHH | soluble
17 | MGGWIRNIGRYLSYLVDDTFEEYAYDVVDGIAKARTQEELLEGVYKALRLAPKLKKKAESKGCPPPRIPSPEDIEALEEKVEQLSNPKDLRKLAVSLALWAFASWNNCPKKGKGTEGGVELEHHHHHH | soluble
18 | MGHHHHHHGSLVPRGSDVQELNSIIQRISKFDNILKDKTIINQQDLRQISWNGIPKIHRPVVWKLLIGYLPVNTKRQEGFLQRKRKEYRDSLKHTFSDQHSRDIPTWHQIEIDIPRTNPHIPLYQFKSVQNSLQRILYLWAIRHPASGYVQGINDLVTPFFETFLTEYLPPSQIDDVKIKDPSTYMVDEQITDLEADTFWCLTKLLEQITDNYIHGQPGILRQVKNLSQLVKRIDADLYNHFQNEHVEFIQFAFRWMNCLLMREFQMGTVIRMWDTYLSETSQEVTSSYSMSSNDIKPPVTPTEPRVASFVTPTKDFQSPTTALSNMTPNNAVEDSGKMRQSSLNEFHVFVCAAFLIKWSDQLMEMDFQETITFLQNPPTKDWTETDIEMLLSEAFIWQSLYKDATSHWL | soluble
19 | MGHHHHHHHHHHSSGHIDDDDKHMRGREEKAPEEPQPVKMPENNSVVEATWNDVQLEDSLGMEVGYRLIPMVDFQQDGELLGRIRSIRKKFAQDMGFLPPVVHIRDNMDLQPARYRILMKGVEIGSGDAYPGRWLAINPGTAAGTLPGEKTVDPAFGLDAIWIESALKEQAQIQGFTVVEASTVVATHLNHLIGQFSAELFGRQEAQQLLDRVSQEMPKLTEDLVPGVVTLTTLHKVLQNLLAEKVPIRDMRTILETLAEHAPLQSDPHELTAVVRVALGRAITQQWFPGNEEVQVIGLDTALERLLLQALQGGGGLEPGLADRLLAQTQEALSRQEMLGAPPVLLVNHALRPLLSRFLRRSLPQLVVLSNLELSDNRHIRMTATIGGK | soluble
20 | MGHHHHHHMSADFGLIGLAVMGQNLILNAADHGFTVCAYNRTQSKVDHFLANEAKGKSIIGATSIEDFISKLKRPRKVMLLVKAGAPVDALINQIVPLLEKGDIIIDGGNSHFPDSNRRYEELKKKGILFVGSGVSGGEEGARYGPSLMPGGSEEAWPHIKNIFQSISAKSDGEPCCEWVGPAGAGHYVKMVHNGIEYGDMQLICEAYDIMKRLGGFTDKEISDVFAKWNNGVLDSFLVEITRDILKFDDVDGKPLVEKIMDTAGQKGTGKWTAINALDLGMPVTLIGEAVFARCLSALKNERIRASKVLPGPEVPKDAVKDREQFVDDLEQALYASKIISYAQGFMLIREAAATYGWKLNNPAIALMWRGGCIIRSVFLGQITKAYREEPDLENLLFNKFFADAVTKAQSGWRKSIALATTYGIPTPAFSTALSFYDGYRSERLPANLLQAQRDYFGAHTFRVLPECASDNLPVDKDIHINWTGHGGNVSSSTYQA | soluble
21 | MGHHHHHHSHAELSANQSRIDALEKAGQKLIDVNHYAKDEVAARMNEVISLWKKLLEATELKGIKLREANQQQQFNRNVEDIELWLYEVEGHLASDDYGKDLTNVQNLQKKHALLEADVAAHQDRIDGITIQARQFQDAGHFDAENIKKKQEALVARYEALKEPMVARKQKLADSLRLQQLFRDVEDEETWIREKEPIAASTNRGKDLIGVQNLLKKHQALQAEIAGHEPRIKAVTQKGNAMVEEGHFAAEDVK | soluble
